# Where no end group is shown, it is not given here.
# Legend:
# NYAD-67 = assay: ITC; conditions: both partners purified
# NYAD-36 = assay: ITC; conditions: both partners purified
binder,measurement,setting,value
CTRPNYNKRKRIHIGPGRAFYTTKNIIGTIRQAHC (also: cyclic (mode not given here)) [full-length cyclic V3 loop peptide],Kd,NYAD-67,990 ± 40 nM
same,Kd,NYAD-36,350 ± 30 nM
